We go through 3 molecules from publication PMC4939424 (2016).

B1: GST-fused PI3KAP/XB130 fragment, GST-del1 without the C-terminal 70 amino acids (GST-del2) (protein)
chain: LPSRDCQDDLYDDVEVSELIAVVEPAEEAAPAVDANSGSEPDRVYLDLTPVKSFLHSSSEAQAQASLPAVPHQDDVAETLTVDPKPGTTPEEPHTESPGDPEVQQRQPEVQESSEPIEPTPRITMVKLQAEQQRISFPANCPDTMASAPIAASPPVKEKLRVTSAEIKLGKNRTEAEVKRYTEEKERLERSKEEIRGHLAQLRREKRELKETLLRCTDKGVLAKLEQTLKKIDEECRMEESRRVDLELSIMEVKDNLKKAEAG
B2: GST-fused PI3KAP/XB130 C-terminal fragment, amino acid residues 511-843 (GST-del1) (protein)
chain: LPSRDCQDDLYDDVEVSELIAVVEPAEEAAPAVDANSGSEPDRVYLDLTPVKSFLHSSSEAQAQASLPAVPHQDDVAETLTVDPKPGTTPEEPHTESPGDPEVQQRQPEVQESSEPIEPTPRITMVKLQAEQQRISFPANCPDTMASAPIAASPPVKEKLRVTSAEIKLGKNRTEAEVKRYTEEKERLERSKEEIRGHLAQLRREKRELKETLLRCTDKGVLAKLEQTLKKIDEECRMEESRRVDLELSIMEVKDNLKKAEAGPVTLGTTVDTTHLDNMSPRPQPKAATPNPPPDSTPVNSASVLKNRPLSVMVTGKGTVLQKAKEWEKKGAS
B3: GST-fused C-terminal 70 amino acid residues of PI3KAP/XB130 (GST-del3) (protein)
chain: PVTLGTTVDTTHLDNMSPRPQPKAATPNPPPDSTPVNSASVLKNRPLSVMVTGKGTVLQKAKEWEKKGAS

This test deals with Actin filaments (F-actin) polymerized in vitro from rabbit skeletal muscle actin (Oryctolagus cuniculus (Rabbit), UniProt P68135). Put plainly: F-actin co-sedimentation (pelleting).
Regarding B1, the binding result is “no binding”.

Take B2: the binding result is “binds”.

Consider B3, for which the binding result is given as “binds”.
